The target in assay [1] is Escherichia coli heat labile toxin B subunit, pentameric, recombinant (Escherichia coli) (UniProt P32890). Description: ELISA.
For assay [2], the target named is cholera toxin B subunit, pentameric, recombinant (Vibrio cholerae) (UniProt P01556). Description: ELISA.

Drawing on paper PMC2200010, this text covers stoichiometry N (A subunit per pentameric B subunit) for two substances.

Sequence of UniProt P01556 (P01556 22-124): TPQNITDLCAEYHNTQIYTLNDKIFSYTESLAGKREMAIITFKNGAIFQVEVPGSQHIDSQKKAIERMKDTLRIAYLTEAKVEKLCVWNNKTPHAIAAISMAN
Sequence of UniProt P32890 (P32890 22-124): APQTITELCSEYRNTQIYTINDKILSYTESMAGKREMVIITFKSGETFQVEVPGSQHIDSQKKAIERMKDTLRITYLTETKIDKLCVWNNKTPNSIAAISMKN

Consider “Escherichia coli heat labile toxin A subunit, recombinant wild type (from UniProt P06717 19-258) (natural protein)”, for which the stoichiometry N (A subunit per pentameric B subunit) in assay [1] stood at 1.
As to “cholera toxin A subunit, recombinant wild type (natural protein)”, the stoichiometry N (A subunit per pentameric B subunit) in assay [2] came out at 1.
